Measurements reported in publication PMC4233142.

Target: YFPC-2aCore (hepatitis C virus genotype 2a (JFH-1)) (UniProt Q99IB8)
Assay: split reporter

YFPN-2a5B (from UniProt Q99IB8 2443-3033) (natural protein)
percent of RFP-expressing cells that also expressed YFP: 43%
